Measured values: article PMC7949094, “Pantoea stewartii WceF is a glycan biofilm-modifying enzyme with a bacteriophage tailspike-like fold” (The Journal of Biological Chemistry, 2021)

How the values were obtained:
SDS-PAGE without heating = target: the molecule itself; assay: SDS-PAGE without heating
[1] = target: the molecule itself; assay: SDS-PAGE without heating; purified HK620TSP and P22TSP in 2% (w/v) SDS, with or without heating for 5 min
[2] = target: the molecule itself; assay: SEC; size-exclusion chromatography of purified WceF (Fig. S2); conditions not shown

B1: bacteriophage HK620 tailspike protein (natural protein)
chain: DPDQFRAIIESPEGAGHVGYQYRRNTGSTMRMVSDVLDERVSLWDFHCDPSGNVIQPGPNVDSRQYLQAAIDYVSSNGGGTITIPAGYTWYLGSYGVGGIAGHSGIIQLRSNVNLNIEGRIHLSPFFDLKPFQVFVGFDNGDPASSGNLENCHIYGHGVVDFGGYEFGASSQLRNGVAFGRSYNCSVTGITFQNGDVTWAITLGWNGYGSNCYVRKCRFINLVNSSVNADHSTVYVNCPYSGVESCYFSMSSSFARNIACSVELHQHDTFYRGSTVNGYCRGAYVVMHAAEAAGAGSYAYNMQVENNIAVIYGQFVILGSDVTATVSGHLNDVIVSGNIVSIGERAAFSAPFGAFIDIGPDNSGASNVQDIQRVLVTGNSFYAPANITDSAAITLRANLNGCTFIANNFDCRYMVYNAPGTTSPVVQNLVWDKSNVIGGTHANQRAGQNLFDMQFASVVNSTIEVQLSCEDLSMFSCILFPASCQLSYSKITVDSAWTKSMSNTAVFEGNQQAGANVYVSYPATVNLTSYNTQGAVPFFSTDTNYAWVTSAYSLSINENLDFSPPATYTNKANGQLVGVGYNEIGGVRSVSVRLMLQRQV
notes: also called HK620TSP; source: purified
stoichiometry N (SDS-PAGE without heating): 3

B2: bacteriophage P22 tailspike protein (natural protein)
chain: YDPDQYSIEADKKFKYSVKLSDYPTLQDAASAAVDGLLIDRDYNFYGGETVDFGGKVLTIECKAKFIGDGNLIFTKLGKGSRIAGVFMESTTTPWVIKPWTDDNQWLTDAAAVVATLKQSKTDGYQPTVSDYVKFPGIETLLPPNAKGQNITSTLEIRECIGVEVHRASGLMAGFLFRGCHFCKMVDANNPSGGKDGIITFENLSGDWGKGNYVIGGRTSYGSVSSAQFLRNNGGFERDGGVIGFTSYRAGESGVKTWQGTVGSTTSRNYNLQFRDSVVIYPVWDGFDLGADTDMNPELDRPGDYPITQYPLHQLPLNHLIDNLLVRGALGVGFGMDGKGMYVSNITVEDCAGSGAYLLTHESVFTNIAIIDTNTKDFQANQIYISGACRVNGLRLIGIRSTDGQGLTIDAPNSTVSGITGMVDPSRINVANLAEEGLGNIRANSFGYDSAAIKLRIHKLSKTLDSGALYSHINGGAGSGSAYTQLTAISGSTPDAVSLKVNHKDCRGAEIPFVPDIASDDFIKDSSCFLPYWENNSTSLKALVKKPNGELVRLTLATL
notes: also called P22TSP; source: purified
stoichiometry N [1]: 3

B3: Pantoea stewartii WceF (residues 29-736, lacking the Tat signal peptide) (enzyme)
chain: KNTGLALKSVDATAIPKGDVPILTPENVYAMPPQFWQNFQGKLWIGRAGSDARQPGNQIPVFLRDANGNLAQITQPITLNKGNFDQFVKDNAALIANPSHAMALEDSNGQTVFNIPDVSQPGQAAFSQRLAQPAGYQLIGEIPSVDDLRKTRPLFEGAKIKLKSWHPGLEVGGGEFVGSFQPAQDDQGVIFSGDGFHWRRVVDDYNRLSLFDFGAIADGKTDSAPAIKAMYQWSQQSDQPICVQFPAGTFFVTGCDFGEEQRRFFRISGAMVNFGYFPATTIVSDGQSPFVFEVSARWVEISNLIFNGNTDTKPNRQGLLRNTCPGGQFFRGACLRFNNVGGTALSLLDTLDCKIDQWYASACTGDVIQAGWSGQKKGNWDHSTAIELSNFNAQHCKGGKVLNLPRCSQSLIHNGWIEHCDNPGDISNGQWIIDALSLEDCKNPLIAWHSRLNTRQTNLQSGSWIDNSEQGDRWLSAWEMGSTRVESYGVAIDGSLKYNYLTSRWLLENNTSQPVWYELANLYSPTVGDSWEIEVFGQSQFNNGTDSEPLMNLIDGRNTGGRAVIHVQRKKDHAEASWSAEGSSPVLDVRYVAKTDTDTQVFIRLAGWTPSAAIMIKSTAKDRFVTGRCARVDAKMAKATPDSGSHAAPQRFSLHNGKAGVGANEQGDLLLASRALSADNVDTRKPEGFVSVVINGKTVALPYFAIKA
notes: WceF of Pantoea stewartii subsp. stewartii DSM 30176, amplified from genomic DNA; recombinant construct residues 29-736 without the N-terminal 28 amino acids of the Tat signal peptide (the methods say aa 28-736); residues 34-736 resolved in the electron density; His6 tag followed by a TEV site, cleaved off for the purified protein; The forward primer encodes ...ENLYFQG-AKNTGL, so a glycine …
stoichiometry N [2]: 3
